Experimental data from patent US20050221288A1.

Experiments:
[1] = molecular target: endogenous P-TEFb complex (positive transcription elongation factor b) (UniProt P50750); assay: cell-based or functional assay
[2] = molecular target: endogenous P-TEFb complex (positive transcription elongation factor b) (UniProt P50750); assay: GST pull-down of endogenous P-TEFb from cell extract, read out by the Tat-associated kinase assay

Sequence of UniProt P50750 (P50750 whole entry, chain 1 of 2): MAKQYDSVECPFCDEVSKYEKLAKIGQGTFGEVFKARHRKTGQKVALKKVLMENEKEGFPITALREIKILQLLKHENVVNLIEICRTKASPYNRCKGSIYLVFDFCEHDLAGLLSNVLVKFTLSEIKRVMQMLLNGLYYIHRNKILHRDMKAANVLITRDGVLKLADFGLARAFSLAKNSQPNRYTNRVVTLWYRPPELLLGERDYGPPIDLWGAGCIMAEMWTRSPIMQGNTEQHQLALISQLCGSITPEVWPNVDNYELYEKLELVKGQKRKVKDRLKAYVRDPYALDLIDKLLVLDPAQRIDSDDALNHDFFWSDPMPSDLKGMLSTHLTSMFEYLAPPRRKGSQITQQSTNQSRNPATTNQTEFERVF
Sequence of UniProt P50750 (O60563 whole entry, chain 2 of 2, further chain): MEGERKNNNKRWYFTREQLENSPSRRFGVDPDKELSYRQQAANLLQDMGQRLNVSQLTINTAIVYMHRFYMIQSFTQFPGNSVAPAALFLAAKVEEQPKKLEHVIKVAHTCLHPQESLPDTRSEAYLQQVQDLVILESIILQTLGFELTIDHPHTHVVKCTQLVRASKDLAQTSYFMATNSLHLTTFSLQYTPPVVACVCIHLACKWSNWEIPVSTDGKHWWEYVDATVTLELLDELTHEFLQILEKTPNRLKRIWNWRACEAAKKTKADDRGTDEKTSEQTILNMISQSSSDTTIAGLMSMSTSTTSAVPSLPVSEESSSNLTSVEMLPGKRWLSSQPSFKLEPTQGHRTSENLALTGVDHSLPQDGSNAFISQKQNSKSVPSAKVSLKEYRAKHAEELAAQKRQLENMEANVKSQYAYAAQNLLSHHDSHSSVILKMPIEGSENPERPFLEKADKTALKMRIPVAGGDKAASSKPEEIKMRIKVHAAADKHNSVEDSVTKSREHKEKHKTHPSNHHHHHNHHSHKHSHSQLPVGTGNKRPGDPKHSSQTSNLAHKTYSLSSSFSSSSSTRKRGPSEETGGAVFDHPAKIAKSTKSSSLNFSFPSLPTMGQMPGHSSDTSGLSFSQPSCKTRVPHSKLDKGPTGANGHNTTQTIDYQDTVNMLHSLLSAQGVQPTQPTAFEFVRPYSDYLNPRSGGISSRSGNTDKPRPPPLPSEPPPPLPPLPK

GST-Tat T23N (1-72) (from UniProt P04608 1-72)
extent of CTD phosphorylation (Tat-associated kinase assay after GST pull-down; U937 or 293 cell extract) (fold over wild-type Tat) [1]: 3.5
fold stronger binding than wild-type Tat [2]: 3.5 fold
